The target in data set [1] is T1, MdDOF3.6 (Malus domestica, UniProt A0A498JFY8 1-358).
T1 sequence: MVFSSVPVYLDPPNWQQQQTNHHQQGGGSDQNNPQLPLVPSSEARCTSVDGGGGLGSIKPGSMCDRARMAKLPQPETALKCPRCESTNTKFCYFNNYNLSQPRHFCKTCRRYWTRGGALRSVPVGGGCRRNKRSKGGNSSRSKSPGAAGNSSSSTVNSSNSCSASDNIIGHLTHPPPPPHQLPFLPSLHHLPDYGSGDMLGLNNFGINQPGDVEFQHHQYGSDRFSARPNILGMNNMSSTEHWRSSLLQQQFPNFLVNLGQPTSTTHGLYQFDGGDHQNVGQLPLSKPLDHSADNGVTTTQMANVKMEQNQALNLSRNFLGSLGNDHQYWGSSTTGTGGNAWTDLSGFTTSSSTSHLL
Briefly: EMSA; mutated probe; shift disappeared; not stated (EMSA according to cited protocol; biotin-labelled probes, Beyotime kit). To be noted: protein: recombinant; tags: His. A general note: Mobility shift assays separate free from complexed probe on a gel.

Data set [2] deals with T1, MdDOF3.6. The experiment in a line: EMSA; not stated (EMSA according to cited protocol; biotin-labelled probes, Beyotime kit). Conditions: protein: recombinant; tags: His; label: biotin.

B1: MdCKX7 promoter P4 mutant probe (dsDNA)
DNA 1: GATACTAAAAAAAAAAAAAAAAAAAAAATCCTTATC
DNA 2: GATAAGGATTTTTTTTTTTTTTTTTTTTTTAGTATC
In the case of B1, the binding result in the data set with MdDOF3.6 [1] was “no binding”.

B2: MdCKX7 promoter P4 probe (dsDNA)
DNA 1: GATACTATTCACTTTACCCTTTATTCTGTCCTTATC
DNA 2: GATAAGGACAGAATAAAGGGTAAAGTGAATAGTATC
As to B2, in the data set with MdDOF3.6 [2], the binding result is recorded as “binds”.
